Data reported in patent US12357802B2, “Self-actuating articles” (priority 2017, dated 2025).

System: Micrococcus lysodeikticus cells
Experiment: Lysozyme enzyme activity assay of dissolved micropost tips
Format: biochemical
Conditions: micropost tips 80% lysozyme and 20% PEO 200 k, vs uncompressed powder
Experimental: To measure the activity of lysozyme, the assay provided by Sigma Aldrich was used which measures the amount of lysed Micrococcus lysodeikticus cells. Briefly, a 200 unit/mL Lysozyme solution in 50 mM Potassium Phosphate Buffer was added to a 0.015% [w/v]Micrococcus lysodeikticus cell suspension in the same buffer. The decrease was recorded in A450 over 5 minutes. Nine micropost tips were fabricated from 80% lysozyme and 20% PEO 200 k and dissolved sets of three micropost tips together. Triplicate assays were performed on each dissolved solution for a total of nine tests and the results were compared to the results of a solution made with lysozyme that was not compressed into a micropost tip.

Substance: lysozyme
- enzymatic activity after the manufacturing process: maintain their activity
